# B1: OCRL-PH domain: recombinant His-tagged PH domain, residues 1-129 of OCRL, ~16kDa (protein, UniProt Q01968 1-129, looked up, fragment)
# chain: MEPPLPVGAQPLATVEGMEMKGPLREPCALTLAQRNGQYELIIQLHEKEQHVQDIIPINSHFRCVQEAEETLLIDIASNSGCKIRVQGDWIRERRFEIPDEEHCLKFLSAVLAAQKAQSQLLVPEQKDS
# modifications: PH domain His tag
# notes: recombinant His-tagged PH domain, residues 1-129 of OCRL, ~16kDa
# Assays:
# [1] = system: WT TMEM55B region 80-166; experiment: In vitro pulldown of untagged TMEM55B with His-tagged bait peptides; type: binding; details: 10 μM bait, 10 μM prey, Ni2+-agarose, 20 mM Tris pH 8.0, 300 mM NaCl, 20 mM imidazole, 15 minutes, SDS-PAGE, Coomassie, qualitative
# Excerpt: Figure 5: In vitro pulldowns of TMEM55B with TBM peptides. (A) Domain organization of TMEM55B interactors depicting the sequence context of the TBM. Regions that are α-helical have been drawn as cylinders; α/βfolds are shown as rectangles; and unstructured segments are zigzag lines. (B) Cartoon depiction of the in vitro pulldown strategy using His-tagged peptides. […] As a control, the R151E variant of TMEM55B was used, which abolishes the interactions with RILPL1 (bottom panel). […] Protein/peptide concentrations were 10μM (see Methods) and visualization was enabled by Coomassie Brilliant Blue G250.
# Given that the TBMs reside in flexible regions of the adaptor proteins (Figure 5A), peptides should be able to mimic their interactions with TMEM55B. Peptides corresponding to the potential TBMs were synthesized with an N-terminal hexahistidine tag to enable in vitro pulldowns of TMEM55B (80-166; Figure 5B). Slightly extended peptides beyond the minimal TBMs were generated to preclude any structural or conformational restrictions on the interaction with TMEM55B. The peptide TBM from RILPL1 was used as a positive control, and the mutant R151E™ of TMEM55B provided a negative control. Peptides run on conventional SDS-PAGE gels are generally not visible in this assay. […]
# [2] = molecular target: T1, TMEM55B (residues 80-160) (Homo sapiens, UniProt Q86T03); experiment: Isothermal titration calorimetry of TBM peptides / OCRL PH domain with TMEM55B; type: binding; details: ITC; titration shown in the figure panel (Figure 1G / Figure 6B); value printed in the picture, ±% = fitting error
# T1 construct: injected into a cell containing TMEM55B (residues 80-160); hexa-Histidine (N); made in house; host or cells: E. coli BL21(DE3)
# Procedure: Calorimetry experiments were performed using an ITC200 (Particular Sciences) as described in dx.doi.org/10.17504/protocols.io.j8nlkr7x6v5r/v1. Experiments were performed 3 or more times for each interacting pair. The TBM peptides were dialyzed together with TMEM55B80-160 (20 mM) Tris-HCl, 150mM NaCl, 5mM and 1mM DTT, pH 7.5). Protein concentrations were calculated based on their absorbance at 280nm using a ND-1000 NanoDrop spectrophotometer (Thermo Scientific), peptide concentration was determined by adding buffer to a known amount of lyophilized peptide factoring in their purity. The proteins were centrifuged at 13,100 x g for 10 minutes prior to the determination of protein concentration and ITC analyses. […]. We used Origin 7.0 with the ITC plugin for data processing, and assumed a single binding mode for data fitting.
# T1 sequence (Q86T03 73-153): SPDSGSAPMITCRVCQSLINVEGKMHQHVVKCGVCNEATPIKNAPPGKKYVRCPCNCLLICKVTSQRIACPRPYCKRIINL
molecule,measurement,setting,value
B1,pulldown of untagged WT TMEM55B (80-166) by His-tagged bait,[1],interacts robustly
same,pulldown of untagged WT TMEM55B (80-166) by His-tagged bait,[1]; listed as PH domain of OCRL1,successfully pulldown
same,Kd,[2],900 nM
